Data from patent US12281340B2, “Method of producing N-acyl-amino group-containing compound” (AJINOMOTO CO., INC., priority 2018, dated 2025).

Tests used:
Assay type in all cases: biochemical
[1] = Quantification of produced N-acylamino acid (UV 210 nm) using purified acylamino acid synthetase; conditions: 5 mM L-Asp, 5 mM sodium fatty acid, 200 μg/mL enzyme, 25° C., 24 hours
Procedure: 0.1 mL of a reaction solution containing 50 mM Tris-HCl, 5 mM amino acid, 5 mM sodium fatty acid, 10 mM ATP, 10 mM MgCl2, 1 mM DTT, 200 μg/mL of the purified enzyme, pH 8.0 was incubated at 25° C. for 24 hours. As amino acids, L-Asp was used in AtGH3-6, OsGH3-8, AtGH3-5, AtGH3-12, and Gly or L-Ala was used in CfHP. After completion of the reaction, 0.4 mL of the reaction stop solution (1% (v/v) phosphoric acid, 75% (v/v) methanol) was added, and the mixture was filtrated through the filter followed by being subjected to the UPLC-MS analysis to quantify the produced N-acylamino acid by detection at UV 210 nm. The condition for the UPLC-MS analysis is as descried in Example 2. As a result of the analysis, 3.9 mM of Nα-capryloyl-L-aspartic acid, 4.5 mM of Nα-caprinoyl-L-aspartic acid and 2.2 mM of Nα-lauroyl-L-aspartic acid were detected when AtGH3-6 was used; 4.3 mM of Nα-capryloyl-L-aspartic acid, 4.6 mM of Nα-caprinoyl-L-aspartic acid and 3.5 mM of Nα-lauroyl-L-aspartic acid were detected when OsGH3-8 was used; 4.1 mM of Nα-capryloyl-L-aspartic acid, 4.6 mM of Nα-caprinoyl-L-aspartic acid and 2.5 mM of Nα-lauroyl-L-aspartic acid were detected when AtGH3-5 was used; 1.6 mM of Nα-capryloyl-L-aspartic acid, 0.6 mM of Nα-caprinoyl-L-aspartic acid and 0.2 mM of Nα-lauroyl-L-aspartic acid were detected when AtGH3-12 was used; 4.5 mM of Nα-capryloylglycine, 4.6 mM of Nα-caprinoylglycine, 0.1 mM of Nα-lauroylglycine, 3.1 mM of Nα-capryloyl-L-alanine, 3.6 mM of Nα-caprinoyl-L-alanine and 0.4 mM of Nα-lauroyl-L-alanine were detected when CfHP was used.

[2] = Synthesis of N-lauroylamino acid / N-lauroylamino acid derivative using purified acylamino acid synthetase, UPLC-MS detection; set-up: key: +: Detected; −: Not detected; conditions: +ATP
Procedure: 0.2 mL of a reaction solution containing 50 mM Tris-HCl, 5 mM amino acid or D-amino acid derivative, 5 mM sodium laurate, 10 mM ATP, 10 mM MgCl2, 1 mM DTT, 200 μg/mL of the purified enzyme, pH 8.0 was incubated at 25° C. for 24 hours. After completion of the reaction, 0.8 mL of the reaction stop solution (1% (v/v) phosphoric acid, 75% (v/v) methanol) was added, and the mixture was filtrated through the filter followed by being subjected to the UPLC-MS analysis to detect a signal of a molecular weight corresponding to an N-lauroyl-amino acid or an N-lauroyl-amino acid derivative. The condition for the UPLC-MS analysis is as described in Example 2.
As a result of the UPLC-MS analysis, the signal of the molecular weight corresponding to the N-lauroyl-amino acid or the N-lauroyl-amino acid derivative was confirmed in the reaction solution containing the enzyme in combination with the amino acid or the amino acid derivative shown in Table 5 below.

[3] = Synthesis of N-caprinoylamino acid using purified acylamino acid synthetase, UPLC-MS detection; set-up: key: +: Detected; −: Not detected; conditions: +ATP
In short: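 Purified enzyme (50 μg) with 5 mM amino acid, 5 mM sodium caprate, 10 mM ATP, 10 mM MgCl2, 1 mM DTT in Tris-HCl pH 8.0, 24 h at 25° C; product detected by UPLC-MS (ESI-negative) as the N-caprinoyl amino acid mass signal.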

B1: AtGH3-12: 4-substituted benzoates-glutamate ligase GH3.12 from Arabidopsis thaliana, His-tagged (protein, listed as Arabidopsis thaliana)
chain: MKPIFDINETFEKQLKDLTSNVKSIQDNLLEEIITPNTKTEYLQRFLIDRFDKELFKKNVPIVSYEDIKPYLDRVVNGESSDVISARTITGFLLSSGTSGGAQKMMPWNNKYLDNLTFIYDLRMQVITKHVKGVEEGKGMMFLFTKQESMTPSGLPARVATSSYFKSDYFKNRPSNWYYSYTSPDEVILCPNNTESLYCHLLCGLVQRDEVVRTGSIFASVMVRAIEVLKNSWEELCSNIRSGHLSNWVTDLGCQNSVSLVLGGPRPELADTIEEICNQNSWKGIVKRLWPNTKYIETVVTGSMGQYVPMLNYYCNDLPLVSTTYGSSETTFGINLDPLCKPEDVSYTFMPNMSYFEFIPMDGGDKNDVVDLEDVKLGCTYEPVVTNFAGLYRMRVGDIVLVTGFYNNAPQFKFVRRENVVLSIDSDKTNEEDLFKAVSQAKLVLESSGLDLKDFTSYADTSTFPGHYVVYLEVDTKEGEEKETAQFELDEEALSTCCLVMEESLDNVYKRCRFKDGSIGPLEIRVVRQGTFDSLMDFFISQGASTGQYKTPRCIKSGKALQVLETCVVAKFFSI
modifications: His-tag
notes: 4-substituted benzoates-glutamate ligase GH3.12 from Arabidopsis thaliana, His-tagged
With B1 the Nα-caprinoyl-L-aspartic acid detected [1] was 0.6 mM, the Nα-capryloyl-L-aspartic acid detected [1] was 1.6 mM and the Nα-lauroyl-L-aspartic acid detected [1] was 0.2 mM. The “signal of molecular weight corresponding to N-lauroyl amino acid” value (“signal … to N-lauroyl amino acid” below) ([2]; substrates Gly and sodium laurate) was “−”, the “signal … to N-lauroyl amino acid” value ([2]; substrates L-Ala and sodium laurate) was “−” and the “signal … to N-lauroyl amino acid” value ([2]; substrates L-Arg and sodium laurate) was “−”. The “signal … to N-lauroyl amino acid” value ([2]; substrates L-Asp and sodium laurate) was “+”, the “signal … to N-lauroyl amino acid” value ([2]; substrates L-Glu and sodium laurate) was “−” and the “signal … to N-lauroyl amino acid” value ([2]; substrates L-Lys and sodium laurate) was “+”. For the same molecule, the “signal … to N-lauroyl amino acid” value ([2]; substrates L-Thr and sodium laurate) was “+”, the “signal … to N-lauroyl amino acid” value ([2]; substrates β-Ala and sodium laurate) was “−” and the “signal of molecular weight corresponding to N-caprinoyl amino acid” value (shortened to “signal … to N-caprinoyl amino acid”) ([3]; substrates GABA and sodium caprate) was “+”. The “signal … to N-caprinoyl amino acid” value ([3]; substrates Gly and sodium caprate) was “+”, the “signal … to N-caprinoyl amino acid” value ([3]; substrates L-Ala and sodium caprate) was “+” and the “signal … to N-caprinoyl amino acid” value ([3]; substrates L-Arg and sodium caprate) was “+”. The “signal … to N-caprinoyl amino acid” value ([3]; substrates L-Asn and sodium caprate) was “+”, the “signal … to N-caprinoyl amino acid” value ([3]; substrates L-Asp and sodium caprate) was “+” and the “signal … to N-caprinoyl amino acid” value ([3]; substrates L-Cys and sodium caprate) was “+”. For the same molecule, the “signal … to N-caprinoyl amino acid” value ([3]; substrates L-Gln and sodium caprate) was “+”, the “signal … to N-caprinoyl amino acid” value ([3]; substrates L-Glu and sodium caprate) was “+” and the “signal … to N-caprinoyl amino acid” value ([3]; substrates L-His and sodium caprate) was “+”. For the same molecule, the “signal … to N-caprinoyl amino acid” value ([3]; substrates L-Ile and sodium caprate) was “+”, the “signal … to N-caprinoyl amino acid” value ([3]; substrates L-Leu and sodium caprate) was “+” and the “signal … to N-caprinoyl amino acid” value ([3]; substrates L-Lys and sodium caprate) was “+”. The “signal … to N-caprinoyl amino acid” value ([3]; substrates L-Met and sodium caprate) was “+”, the “signal … to N-caprinoyl amino acid” value ([3]; substrates L-Phe and sodium caprate) was “+” and the “signal … to N-caprinoyl amino acid” value ([3]; substrates L-Pro and sodium caprate) was “+”. For the same molecule, the “signal … to N-caprinoyl amino acid” value ([3]; substrates L-Ser and sodium caprate) was “+”, the “signal … to N-caprinoyl amino acid” value ([3]; substrates L-Thr and sodium caprate) was “+” and the “signal … to N-caprinoyl amino acid” value ([3]; substrates L-Trp and sodium caprate) was “+”. For the same molecule, the “signal … to N-caprinoyl amino acid” value ([3]; substrates L-Tyr and sodium caprate) was “+”, the “signal … to N-caprinoyl amino acid” value ([3]; substrates L-Val and sodium caprate) was “+” and the “signal … to N-caprinoyl amino acid” value ([3]; substrates β-Ala and sodium caprate) was “+”.
